Test results published in article PMC8814693 (Computational and Structural Biotechnology Journal, 2022).

What was measured:
Settings in all cases: both partners purified
[1] = target: T1, Bcl-2 (residues 1-207) (UniProt P10415 1-207); assay: SPR; Bfk BH3 peptide amine-coupled to a CM5 chip (10 mM sodium acetate pH 5.0); Bcl-2, Bcl-XL (3.13-200 nM) and Bak (1.25-40.0 uM) injected in HBS-EP at 30 uL/min for 90 s; Biacore T200; KD by steady-state affinity analysis
T1 construct: Bcl-2, residues 1-207; Cloned in pET-28a(+) between NdeI and XhoI; buffer-exchanged to HBS-EP

[2] = target: T2, Bcl-XL (residues 1-209) (UniProt Q07817-1 1-209); assay: as above
T2 construct: Bcl-XL, residues 1-209; Cloned in pET-28a(+) between NdeI and XhoI; buffer-exchanged to HBS-EP

[3] = target: T1, Bcl-2 (residues 1-207); assay: SPR; Bid BH3 peptide amine-coupled to a CM5 chip (10 mM sodium acetate pH 4.0); proteins injected in HBS-EP (10 mM HEPES pH 7.5, 150 mM NaCl, 0.05 mM EDTA, 0.005% Tween 20) at 30 uL/min for 90 s; Biacore T200; affinity experiments, responses plotted against concentration
[4] = target: T2, Bcl-XL (residues 1-209); assay: as above
[5] = target: T3, Bak (residues 23-186) (UniProt Q16611 23-186); assay: as above
T3 construct: Bak, residues 23-186; Cloned in pET-28a(+) between NdeI and XhoI; buffer-exchanged to HBS-EP
T3 sequence (looked up): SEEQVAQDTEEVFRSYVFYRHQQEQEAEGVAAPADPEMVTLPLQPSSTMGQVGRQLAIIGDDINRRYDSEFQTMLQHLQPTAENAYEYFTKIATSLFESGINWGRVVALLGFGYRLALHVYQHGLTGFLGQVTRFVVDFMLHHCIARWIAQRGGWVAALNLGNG

T2 sequence (Q07817 1-209): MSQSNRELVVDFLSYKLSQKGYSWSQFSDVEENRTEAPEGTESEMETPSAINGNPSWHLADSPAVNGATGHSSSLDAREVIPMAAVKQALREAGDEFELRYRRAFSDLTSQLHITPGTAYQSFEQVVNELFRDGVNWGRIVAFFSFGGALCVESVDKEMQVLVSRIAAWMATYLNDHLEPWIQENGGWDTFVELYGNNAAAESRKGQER
T1 sequence (P10415 1-207): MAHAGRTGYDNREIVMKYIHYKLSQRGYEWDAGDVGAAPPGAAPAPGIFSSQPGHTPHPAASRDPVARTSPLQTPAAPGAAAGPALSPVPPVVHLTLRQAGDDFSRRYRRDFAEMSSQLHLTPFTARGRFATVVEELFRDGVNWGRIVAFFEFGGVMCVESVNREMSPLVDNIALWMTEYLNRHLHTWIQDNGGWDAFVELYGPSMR

Row | Binder | Kd [1] [nM] | Kd [2] [nM] | Kd [3] [nM] | Kd [4] [nM] | Kd [5] [nM]
1 | SFDVAIIAGRLRMLGDQFNGE (BH3 peptide of human Bfk (BCL2L15), residues 47-67; also called Bfk BH3 peptide; Bfk BH3; source: synthetic peptide) [synthetic BH3 peptide derived from Bfk (residues 47-67)] | 17.4 | 36.9 | – | – | –
2 | EDIIRNIARHLAQVGDSMDRS (BH3 peptide of Bid; also called Bid BH3 peptide; representative BH3 peptide; source: synthetic peptide) [synthetic BH3 peptide derived from Bid (residues 79-100)] | – | – | 44 | 87 | 37000
